Series [1] concerns the molecule itself. Nature of the series: crystal structure.
Series [2] deals with the molecule itself. Description: crystal structure. The source holds these as a separate data set.

Where two headings read alike, the source gives them in different places.

As usually defined, the stoichiometry N is the number of molecules, sites or subunits per partner or assembly.

B1: Selenomethionine-labelled tagless TipA (residues 26-572) (natural protein, Bdellovibrio bacteriovorus HD100, UniProt Q6MK73 26-572, looked up)
chain: ITDANPQIANKHLMPNAVRVQITQRGMKYFDNRLSDILGNLGVKLDEGYFPAMSYTAEKPINMDDFMDANPEMVKMYQQVRGLLTQWLVGFSMNDHQPTIEIGESGYVAKFSRFGLVTDELLMEALGKRDGAILAIELEVKKLTISTQSVVAWDTQNEFLGKAGFEDVTLQAADEEMPLKIRLPFYLRMNAMGGLEFEALEISNNFDSIPLGLKYGRLIVPQFAVEVNGKKFYVNNAELEKLFQAQAPMILEKVRGSIGDFARTQLPAMLNQKAKEFLGGSLEQVQDMAAPGQEPTDTRPAFKWGLQLQNLNLKKSLNVDLTTYVEDPVNSRSAPVKSHASRGAPTFNAVAQENYDIGLSVDRALINRVLQLAFERRNFEQIKQSDGSVLKLVATPLIDYVKTPAGVAVKPTETFVKLRVSVEIQPGSMFLKKTIVVDFDIIAKLRQLSDKTGMQMLLHSIDTDSLYLDDKYISVAGKLFKGKVREGVKDELKKRSANWATTEESLPGGLPLPPQILGIKLDINRVMMDPNGHLIMYLDYAKTGANK
modifications: selenomethionine-labelled
Take B1: the “stoichiometry N” value in the series “crystal structure [1]” came out at 2.

B2: TipA-His (TULIP invasion protein A, Bd2538, residues 26-572 with C-terminal octa-His tag) (natural protein, Bdellovibrio bacteriovorus HD100, UniProt Q6MK73 26-572, looked up)
chain: B1 chain
As to B2, in the series “crystal structure [2]”, the “stoichiometry N” value was 2.

These data come from doi:10.1101/2025.09.09.675085 (bioRxiv, 2025).
